# From the RNAGym collection of RNA variant scans (doi:10.1073/pnas.2313332121)
# B1: TPR t1 (parent)
# chain: GACCAAUCUGCCCUCAGAGCUCGAGAACAUCUUCGGAUGCAGAGGAGGCAGGCUUCGGUGGCGCGAUAGCGCCAACGUCCUCAACCUCCAAUGCAUCCCACCACAUGAUGAUGCCUGAAGAGCCUUGGUUUUUUG
# Variants of: B1
# Assay: polymerase ribozyme fitness, log enrichment relative to wild type (log ratio); higher = more active; in vitro selection for triplet polymerase activity
# Summary of the method: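 Mutant libraries of each subunit of a heterodimeric triplet polymerase ribozyme were built by PCR and transcribed. Each library went through one round of in vitro selection in triplicate: annealing with biotinylated primer, partner subunit and triplets, frozen incubation at −7 °C, gel excision of extended constructs, streptavidin-bead capture and RT-PCR. Input and output libraries were Illumina-sequenced; only genotypes with ≥10 input reads and ≥1 read per output were kept. Fitness is log2(genotype enrichment/wild-type enrichment), using inverse-variance-weighted replicate averages.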
row,Variant,polymerase ribozyme fitness (log ratio)
1,U59A C104A G110U C115A,-4.57
2,C98U G117U G120C U132C,-3.23
3,C53G A74G,-1.52
4,G42U G47A G69A,-4.71
5,G69U C85G,-0.537
6,C56A C64U G120C,-2.77
7,G52A U133A,-0.415
8,A5U A46U C73A A90U C123A,-1.41
9,C56A C82G A91C G93C,-3.53
10,A46G G60U C94U,-1.81
11,C40G G42A U59A A95G C123G,-2.1
12,C15A A41U U129A,-4.72
13,A2U A27U A74C U87A U112A G127U,-2.94
14,U21C G57U,-0.235
15,G57U C73U G127U,-1.28
16,A37C C76A,-1.6
17,A50U G52A,-2.66
18,A50C A90C,-2.1
19,A74G C102U,-2.11
20,G61A G110A C114G,-6.32
21,G58C C62U,-1.01

row,Variant,polymerase ribozyme fitness (log ratio)
1,U14A G47U,-3.55
2,C8G C13A G57C U78G U112A A118U,0.98
3,C22G G63C C80A,-5.79
4,C72G G113C,-2.87
5,C3U C102U C114G C124G,-4.14
6,C31U U87C U96A G120U,-5.92
7,C20U C40U A43U G93U,-4.35
8,A16C G61C G69U U81A G120C,-3.32
9,U78G A111U,-3.77
10,C4A A6C A46C C49A C72G A84C A119U C123A U126G,-2.77
11,G42C G44A G69C C94U C114A,-5.06
12,G42A G69U C89G,-0.811
13,C4G A26U A75U,-4.4
14,G60U A91G C123U,-0.372
15,G47U G69U U131A,-1.3
16,C11U G39U A43G,-3.16
17,U54A C86U,0.24
18,G10C C11U A84U A108G,-2.5
19,C13U C86G,-0.454
20,A50U G57A U130C,-1.53
21,G120C G135C,1.48

row,Variant,polymerase ribozyme fitness (log ratio)
1,C15U G47A G69C C85A A119U C124U,-3.68
2,C15G A41U C56U U96C C124G,-2.08
3,U38A A90U,-2.22
4,G36A G45C C49A C73A,-0.979
5,C56U U116C,-0.494
6,C89A G113U,-3.35
7,C34A C72A C73A C97U,-3.88
8,C56A C73U C124U,1.55
9,C12A G42U G60A U87A G113A,-4.01
10,C72G A83U A90G C114G,-3.25
11,G45U C53A C72A C89G,-1.62
12,C62U U131C,0.107
13,G36U U59A G93C G120C,-0.759
14,G77A C123G,1.16
15,G61C G128C,-4.34
16,C72G A111G,0.355
17,U54G U78A G93U,-4.13
18,G23U C72U,-6.65
19,C56G C72G C82A C114U,-4.76
20,G42U C56U,-1.29
21,A46U U81C C101G,-4.31

row,Variant,polymerase ribozyme fitness (log ratio)
1,A18G C73A U87G,-3.89
2,C8G C31G,-6.18
3,A6U C56U C72U,0.0866
4,C4G U9A C89A C115A G117C,-4.91
5,C12G C102U,-1.38
6,C76G C114U,-2.74
7,C12A C49U C70G,-4.56
8,C53G C86A A119G G120U,-0.713
9,C8G G128U U130C,0.904
10,G10U G69A A91C,-7.2
11,G69U U112G U125A,1.09
12,G10A G117C,-4.43
13,C114A G127U,-3.82
14,C12A C72A G120C,1.29
15,A41C C99U,-5.06
16,A5G C13G A18C G35U A75G C79U A119G C123G U130C,-7.55
17,C12A G61U C98U U125A,-1.77
18,G60U C123G C124U,2.24
19,C13U G45U G52A A83C A103U C114U G127A,-5.65
20,G77C A83C,-0.826
21,U116G G117A,-1.82
